{
  "source": "paper PMC7237333",
  "molecules": {"B1": {"name": "Bs MtnB (Bacillus subtilis subsp. subtilis str. 168) (protein)", "chain": "MAAKQERWRELAEVKRELAERDWFPATSGNLSIKVTDEPLTFLVTASGKDKRKETVEDFLLVDQNGEPAESGHSLKPSAETLLHTHLYNKTNAGCCLHVHTVNNNVISELYGDQKKITFKGQEIIKALGLWEENAEVTVPIIENPAHIPTLAALFAEEISEDSGAVLIRNHGITAWGKTAFEAKRVLEAYEFLFSYHLKLKTLEHQLVK"}, "B2": {"name": "RrMtnA (Rhodospirillum rubrum ATCC 11170) (protein)", "chain": "MNVKGTPTRTIWPAREGGAVWIIDQTRLPHEFVTQRLNDLGAVAHAIRAMLVRGAPLIGATAAYGVALGMAEDPSDEGLTRACQTLLATRPTAVNLRWAIEAMAESLAAVPPDQRAQAAWAKAGAICDEDVALNEAIGDHGLGIIKDLARTKGVEKGGEGPINILTHCNAGWLATVDWGTALAPLYKAHDAGLPIHVWVDETRPRNQGASLTAWELNSHGVPHTVIADNTGGHLMQHGLVDMVIVGTDRTTATGDVCNKIGTYLKALAAFDNAVPFYVALPGPTIDWTVNDGLREIPIEQRDAAEVTRVWGRTAAGALEWVTITPTGSPAANYAFDVTPARLITGLITERGVCAASAAGLAGLYPERAPAPVPAGSAAGKGAAATADGAL"}, "B3": {"name": "BsMtnA (Bacillus subtilis subsp. subtilis str. 168) (protein)", "chain": "MTHSFAVPRSVEWKETAITILNQQKLPDETEYLELTTKEDVFDAIVTLKVRGAPAIGITAAFGLALAAKDIETDNVTEFRRRLEDIKQYLNSSRPTAINLSWALERLSHSVENAISVNEAKTNLVHEAIQIQVEDEETCRLIGQNALQLFKKGDRIMTICNAGSIATSRYGTALAPFYLAKQKDLGLHIYACETRPVLQGSRLTAWELMQGGIDVTLITDSMAAHTMKEKQISAVIVGADRIAKNGDTANKIGTYGLAILANAFDIPFFVAAPLSTFDTKVKCGADIPIEERDPEEVRQISGVRTAPSNVPVFNPAFDITPHDLISGIITEKGIMTGNYEEEIEQLFKGEKVH"}, "B4": {"name": "EcMtnA (Escherichia coli S88) (protein)", "chain": "MNIKGKHYRTVWVSGDGKAVEIIDQTKLPFKFEVVALTSAEMAATAIQDMWVRGAPLIGVVAAYGIALGMNHDASDMGLQRYYDLLIKTRPTAINLKWALDRMIDTLKDLCVSERKDVAWALAAEIAEEDVALCEQIGLHGAEVIREIAQKKPAGSVVNILTHCNAGWLATVDWGTALSPIYKAHENGIPVHVWVDETRPRNQGGLTAFELGSHGIPHTLIADNAGGHLMQHGDVDLCIVGTDRTTARGDVCNKIGTYLKALAAHDNHVPFYVALPSPTIDWTIEDGKSIPIEQRDGKEQSHVYGINPQGELSWVNTAPEGTRCGNYAFDVTPARYITGFITERGVCAASKSALADMFADLKSKALQGEQH"}},
  "experiment_in_all_cases": "purified protein",
  "key": {"[1]": {"test_system": "CSC[C@H]1O[C@@H](n2cnc3c(N)ncnc32)[C@H](O)[C@@H]1O", "details": "40 mM K-phosphate pH 7.8, 0.1 M MgCl2, 30 °C"}, "[2]": {"test_system": "C[C@H]1O[C@@H](n2cnc3c(N)ncnc32)[C@H](O)[C@@H]1O", "details": "40 mM K-phosphate pH 7.8, 0.1 M MgCl2, 30 °C"}, "[3]": {"substrate": "CSC[C@@H](O)[C@@H](O)C(=O)COP(=O)(O)O", "type": "biochemical, Bacillus subtilis", "details": "30 °C (also performed at 35 °C)"}, "[4]": {"substrate": "C[C@@H](O)[C@@H](O)C(=O)COP(=O)(O)O", "type": "biochemical, Bacillus subtilis", "details": "35 °C probably (used for weak substrates); 35.0 °C"}, "[5]": {"substrate": "O=P(O)(O)O[C@H]1O[C@H](CO)[C@@H](O)[C@H]1O", "type": "biochemical, Rhodospirillum rubrum", "details": "50 mM K-phosphate pH 7.8, 5 mM MgCl2, 0.3 mM CoCl2, 30 °C"}, "[6]": {"substrate": "CSC[C@H]1O[C@H](OP(=O)(O)O)[C@H](O)[C@@H]1O", "type": "biochemical, Bacillus subtilis", "details": "50 mM K-phosphate pH 7.8, 5 mM MgCl2, 0.3 mM CoCl2, 30 °C"}, "[7]": {"substrate": "CSC[C@H]1O[C@H](OP(=O)(O)O)[C@H](O)[C@@H]1O", "type": "biochemical, Escherichia coli", "details": "50 mM K-phosphate pH 7.8, 5 mM MgCl2, 0.3 mM CoCl2, 30 °C"}, "[8]": {"substrate": "C[C@H]1O[C@H](OP(=O)(O)O)[C@H](O)[C@@H]1O", "type": "biochemical, Escherichia coli", "details": "50 mM K-phosphate pH 7.8, 5 mM MgCl2, 0.3 mM CoCl2, 30 °C"}},
  "data": [
    {"molecule": "EcMtnN (Escherichia coli K-12)", "values": [
      {"measurement": "Km", "setting": "[1]", "result": 0.83, "unit": "µM"},
      {"measurement": "kcat", "setting": "[1]", "result": 150, "unit": "s⁻¹"},
      {"measurement": "kcat/Km", "setting": "[1]", "result": "1.8e+08", "unit": "M⁻¹ s⁻¹"},
      {"measurement": "Km", "setting": "[2]", "result": 4.7, "unit": "µM"},
      {"measurement": "kcat", "setting": "[2]", "result": 57, "unit": "s⁻¹"},
      {"measurement": "kcat/Km", "setting": "[2]", "result": "1.2e+07", "unit": "M⁻¹ s⁻¹"}
    ]},
    {"molecule": "B1", "values": [
      {"measurement": "Km", "setting": "[3]", "result": 24, "unit": "µM"},
      {"measurement": "kcat", "setting": "[3]", "result": 16, "unit": "s⁻¹"},
      {"measurement": "kcat/Km", "setting": "[3]", "result": 670000, "unit": "M⁻¹ s⁻¹"},
      {"measurement": "Km", "setting": "[4]", "result": 315, "unit": "µM"},
      {"measurement": "kcat", "setting": "[4]", "result": 0.053, "unit": "s⁻¹"},
      {"measurement": "kcat/Km", "setting": "[4]", "result": 200, "unit": "M⁻¹ s⁻¹"}
    ]},
    {"molecule": "B2", "values": [
      {"measurement": "kcat", "setting": "[5]", "result": 0.03, "unit": "s⁻¹"},
      {"measurement": "kcat/Km", "setting": "[5]", "result": "< 20", "unit": "M⁻¹ s⁻¹"}
    ]},
    {"molecule": "B3", "values": [
      {"measurement": "Km", "setting": "[6]", "result": 114, "unit": "µM"},
      {"measurement": "kcat", "setting": "[6]", "result": 3.9, "unit": "s⁻¹"},
      {"measurement": "kcat/Km", "setting": "[6]", "result": 35000, "unit": "M⁻¹ s⁻¹"}
    ]},
    {"molecule": "B4", "values": [
      {"measurement": "Km", "setting": "[7]", "result": 50, "unit": "µM"},
      {"measurement": "kcat", "setting": "[7]", "result": 0.49, "unit": "s⁻¹"},
      {"measurement": "kcat/Km", "setting": "[7]", "result": 9800, "unit": "M⁻¹ s⁻¹"},
      {"measurement": "Km", "setting": "[8]", "result": 222, "unit": "µM"},
      {"measurement": "kcat", "setting": "[8]", "result": 2.02, "unit": "s⁻¹"},
      {"measurement": "kcat/Km", "setting": "[8]", "result": 9100, "unit": "M⁻¹ s⁻¹"}
    ]}
  ]
}
